Changes are numbered by the printed parent chain. One block for each binder: values may come before it.
How the values were obtained:
human CD27 [1] = biological target: T1, human CD27 (human, UniProt P26842 21-192, limits assumed); experiment: screen of individual clones, heat map of log (Binding MFI), human CD27 at 25 nM
T1 construct: The construct (soluble form, tags) is not described; also called TNFRSF7

human CD27 [2] = biological target: T1, human CD27; experiment: mAb titration on human CD27, OD readout
human CD27 [3] = biological target: T1, human CD27; experiment: Kd table for the mAb titration on human CD27 (OD readout, Figure 4 A); method not given
mouse CD27 [4] = biological target: T2, mouse CD27 (mouse, UniProt P41272 24-182, limits assumed); experiment: Kd table for the mAb titration on mouse CD27 (OD readout, Figure 4 B); method not given
T2 construct: The construct is not described; also called murine CD27
T2 sequence (looked up): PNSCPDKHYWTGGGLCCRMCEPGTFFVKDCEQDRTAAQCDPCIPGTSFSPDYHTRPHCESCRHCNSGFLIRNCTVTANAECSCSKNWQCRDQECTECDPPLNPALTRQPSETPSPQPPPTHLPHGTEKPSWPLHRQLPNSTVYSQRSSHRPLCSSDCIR

mouse CD27 [5] = biological target: T2, mouse CD27; experiment: screen of individual clones, heat map of log (Binding MFI), mouse CD27 at 25 nM

T1 sequence (P26842 21-192 limits assumed): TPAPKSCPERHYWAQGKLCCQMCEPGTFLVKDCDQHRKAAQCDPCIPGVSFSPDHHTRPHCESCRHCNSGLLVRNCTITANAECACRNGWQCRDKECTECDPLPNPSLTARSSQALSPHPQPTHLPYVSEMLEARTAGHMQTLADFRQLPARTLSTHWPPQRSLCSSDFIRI

binding result (human CD27 [1]): binds
B1: TP1 (antibody, V domains shown)
VH: QVQLVESGGGVVQPGRSLRLSCAASGFTFSSYAMHWVRQAPGKGLEWVAVISYDGSNKYYADSVKGRFTISRDNSKNTLYLQMNSLRAEDTAVYYCARAGSSGYAYYGMDVWGQGTLVTVSS
VL: not shown
notes: Clone of the screen; also called TP01

binding result (human CD27 [1]): binds
B2: TP24 (antibody, V domains shown)
VH: QVQLVESGGGVVQPGRSLRLSCAASGFTFSSYAMHWVRQAPGKGLEWVAVISYDGSNKYYADSVKGRFTISRDNSKNTLYLQMNSLRAEDTAVYYCARPVRTISAFDVWGQGTLVTVSS
VL: QSVVTQPPSVSGAPGQRVTISCTGSSSNIGAGYDVHWYQQLPGTAPKLLIYGNSNRPSGVPDRFSGSKSGTSASLAITGLQAEDEADYYCGTWDSSLSAGYVFGTGTKVTVL
notes: Clone of the screen

EC50 (read off the curve) (human CD27 [2]): ~0.3 nM
Kd (human CD27 [3]): 0.6 nM
Kd (mouse CD27 [4]): 8 nM
B3: TP6 (antibody, V domains shown)
VH: QVQLVESGGGVVQPGRSLRLSCAASGFTFSSYAMHWVRQAPGKGLEWVAVISYDGSNKYYADSVKGRFTISRDNSKNTLYLQMNSLRAEDTAVYYCARGYQGGYSNFDLWGQGTLVTVSS
VL: DIQMTQSPSTLSASVGDRVTITCRASQSISSWLAWYQQKPGKAPKLLIYDASSLESGVPSRFSGSGSGTDFTLTISSLQPEDFATYYCQQSYSTPYTFGQGTKLEIK
notes: also called TP06

binding result (human CD27 [1]): binds
B4: TP9 (antibody, V domains shown)
VH: B3 VH with G99A, Y100V, Q101P, G102Y, G103V, S105Y, N106G, F107M, L109V
VL: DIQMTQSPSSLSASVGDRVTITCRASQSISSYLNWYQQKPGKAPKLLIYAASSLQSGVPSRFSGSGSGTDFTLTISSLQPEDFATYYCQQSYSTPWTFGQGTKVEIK
notes: Clone of the screen; also called TP09

binding result (human CD27 [1]): binds
B5: TP5 (antibody, V domains shown)
VH: B2 VH with P99V, V100F, R101Y, T102G, I103Y, S104A, A105P
VL: B3 VL with D70E, E81D
notes: Clone of the screen; also called TP05

Kd (human CD27 [3]): 0.2 nM
Kd (mouse CD27 [4]): 0.5 nM
B6: TP11 (antibody, V domains shown)
VH: QVQLVESGGGVVQPGRSLRLSCAASGFTFSSYAMHWVRQAPGKGLEWVAVISYDGSNKYYADSVKGRFTISRDNSKNTLYLQMNSLRAEDTAVYYCARGVSGSYARGFDVWGQGTLVTVSS
VL: B3 VL with D70E, Y96W, L104V

binding result (human CD27 [1]): binds
B7: TP15 (antibody, V domains shown)
VH: QVQLVQSGAEVKKPGASVKVSCKASGYTFTSYGISWVRQAPGQGLEWMGWISAYNGNTNYAQKLQGRVTMTTDESTSTAYMELSSLRSEDTAVYYCARGGAGHYDYFDYWGQGTLVTVSS
VL: QSVLTQPPSVSAAPGQKVTISCSGSSSNIGNNYVSWYQQLPGTAPKLLIYDNNKRPSGIPDRFSGSNSGNTATLTISGTQAMDEADYYCQAWDSSTAWVFGGGTKLTVL
notes: Clone of the screen

Kd (human CD27 [3]): 0.4 nM
Kd (mouse CD27 [4]): 0.9 nM
B8: TP10 (antibody, V domains shown)
VH: QVQLVESGGGVVQPGRSLRLSCAASGFTFSSYAMHWVRQAPGKGLEWVAVISYDGSNKYYADSVKGRFTISRDNSKNTLYLQMNSLRAEDTAVYYCARSGRATSYSYYGMDVWGQGTLVTVSS
VL: not shown

binding result (human CD27 [1]): binds
B9: TP14 (antibody, V domains shown)
VH: QVQLVQSGAEVKKPGASVKVSCKASGYTFTSYYMHWVRQAPGQGLEWMGIINPSGGSTSYAQKFQGRVTMTRDTSTSTVYMELSSLRSEDTAVYYCARYDHAGGTPFDLWGQGTLVTVSS
VL: QSVLTQPPSVSAAPGQKVTISCSGSSSNIGNNYVSWYQQLPGTAPKLLIYGNSNRPSGVPDRFSGSKSGTSASLAITGLQAEDEADYYCQSYDSSLSGYVFGTGTKVTVL
notes: Clone of the screen

binding result (human CD27 [1]): binds
B10: TP21 (antibody, V domains shown)
VH: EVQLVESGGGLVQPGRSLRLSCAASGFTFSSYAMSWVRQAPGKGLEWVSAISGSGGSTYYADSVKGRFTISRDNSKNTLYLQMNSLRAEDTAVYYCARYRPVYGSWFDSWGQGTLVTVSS
VL: QSVVTQPPSVSGAPGQRVTISCTGSSSNIGAGYDVHWYQQLPGTAPKLLIYGNSNRPSGVPDRFSGSKSGTSASLAITGLQAEDEADYYCQSYDSSLSGYVFGTGTKVTVL
notes: Clone of the screen

EC50 (read off the curve) (human CD27 [2]): ~0.1 nM
Kd (human CD27 [3]): 0.1 nM
B11: TP25 (antibody, V domains shown)
VH: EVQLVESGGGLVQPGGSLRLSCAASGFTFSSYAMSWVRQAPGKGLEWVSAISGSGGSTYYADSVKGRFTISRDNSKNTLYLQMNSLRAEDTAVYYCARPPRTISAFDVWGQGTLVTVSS
VL: B10 VL

Kd (human CD27 [3]): 5 nM
Kd (mouse CD27 [4]): 40 nM
B12: TP23 (antibody, V domains shown)
VH: B7 VH with E74T, S84R, E89D
VL: B10 VL

binding result (human CD27 [1]): binds
B13: TP17 (antibody, V domains shown)
VH: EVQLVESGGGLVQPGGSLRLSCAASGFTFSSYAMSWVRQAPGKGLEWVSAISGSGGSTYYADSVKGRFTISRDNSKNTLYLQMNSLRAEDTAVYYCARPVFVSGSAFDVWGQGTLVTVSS
VL: B10 VL
notes: Clone of the screen

binding result (mouse CD27 [5]): binds
binding result (human CD27 [1]): binds
B14: TP22 (antibody, V domains shown)
VH: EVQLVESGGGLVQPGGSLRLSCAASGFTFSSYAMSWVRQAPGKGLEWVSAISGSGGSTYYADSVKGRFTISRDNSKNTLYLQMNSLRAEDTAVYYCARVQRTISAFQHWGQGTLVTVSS
VL: B10 VL
notes: Clone of the screen

binding result (human CD27 [1]): binds
B15: TP28 (antibody, V domains shown)
VH: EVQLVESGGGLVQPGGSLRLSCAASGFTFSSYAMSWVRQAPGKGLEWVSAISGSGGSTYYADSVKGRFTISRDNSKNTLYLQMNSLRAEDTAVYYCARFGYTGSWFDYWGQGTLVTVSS
VL: B10 VL with N53K
notes: Clone of the screen

Kd (human CD27 [3]): 0.3 nM
Kd (mouse CD27 [4]): 0.7 nM
B16: TP29 (antibody, V domains shown)
VH: EVQLVESGGGVVQPGRSLRLSCAASGFTFSNAWMSWVRQAPGKGLEWVSAISGSGGSTYYADSVKGRFTISRDNSKNTLYLQMNSLRAEDTAVYYCARRALSLSYFDYWGQGTLVTVSS
VL: B10 VL

Kd (human CD27 [3]): 1.4 nM
B17: TP31 (antibody, V domains shown)
VH: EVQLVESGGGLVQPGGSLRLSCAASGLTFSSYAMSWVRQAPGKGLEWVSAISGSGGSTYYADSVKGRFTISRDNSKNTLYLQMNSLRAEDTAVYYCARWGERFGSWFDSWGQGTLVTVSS
VL: B10 VL
